What was measured:
[1] = tested on: circulating cytokines, chemokines, growth factors; assay type: in vivo, mice
[2] = Oral gavage 10 mg/kg in mice: hIL-10 and IL-1Ra time course; assay type: in vivo
From the text: The inflammatory actions of IL-1β are modulated by the presence of a specific receptor antagonist known as IL-1Ra. Increased serum IL-1Ra levels can be induced by IL-10, which can occur in the absence of a pro-inflammatory state. With an appreciation of uncertainties associated with how much and when biologically active delivery construct is released from the stomach to reach the small intestine as well as the timing of its uptake and actions within the Lamina propria following oral gavage, we examined IL-1Ra to function in non-inflamed mice as a biomarker of the IL-10 delivery construct's actions.
To test this question, the delivery construct was directly deposited onto the luminal surface of colonic intestinal mucosa in a nonhuman primate model.

[3] = tested on: circulating cytokines; test: Plasma cytokines by MSD 10-plex, oxazolone dose response; parameters: species or system mice; details: mouse, in vivo
From the text: Plasma cytokines were quantified using the V-plex Proinflammatory Panel 1 Mouse Kit. Plasma IL-1Ra was quantitated by sandwich immunoassay using an antibody pair from the Mouse IL-1Ra/IL-1F3 DuoSet ELISA (R&D Systems #DY480), Streptavidin SULFO-TAG Labeled (MSD #R32AD-1), Multi-Array 96 Plate Pack, SECTOR Plate MSD #L15XA-3 and Read Buffer T (4×) (MSD #R92TC-2). Samples were read on the QuickPlex SQ 120 plate reader (Meso Scale Discovery, Rockville, Md.).

[4] = Purification with and without sulfitolysis: SEC-HPLC forms, yield, dimer recovery
Procedure: Refolding in both processes was carried out at 4° C. The refolding solution used in both processes contained 1 mM reduced glutathione, 0.5 mM oxidized glutathione, 1M Arginine-HCl, 250 mM sucrose, 100 mM Tris pH 8.5 at 4° C., and 2 mM EDTA.

[5] = tested on: ulcerative colitis; test: Phase 1b multiple ascending dose in patients with active UC; assay type: in vivo, human
Procedure: Data was gathered on the safety, tolerability, pharmacokinetics, pharmacodynamics, and initial clinical response following a multiple ascending dose (MAD) of the IL-10 delivery construct in adult patients with active UC over 14 days of treatment. […] A coating with a weight ratio of 50:50 of Eudragit® L30D55: Eudragit® FS30D was applied with a thickness of 14.8 to 16.0 mg/cm^2 and a weight of approximately 76 mg to each capsule. Placebo capsules were generated using similarly coated empty capsules.
A total of four cohorts were dosed with either 1 mg, 3 mg, 10, mg or 30 mg of the IL-10 delivery construct, randomized 3:1 to receive the IL-10 delivery construct or a placebo administered once daily for fourteen days. The goal of the trial was to assess the safety of the IL-10 delivery construct and any change in UC disease activity, through endoscopy, histology, biomarkers, and serum samples. Stool samples and colonic biopsies were obtained at baseline and day 14 of treatment to assess fecal calprotectin as well as histology based upon blinded central read of the Geboes scoring system. Fecal calprotectin is an objective marker of clinical response in UC studies and the Geboes scoring system is a measure of histological response. The Geboes scoring system of this example used a 0-22 point histologic scoring system in which higher scores represent more severe disease.

[6] = tested on: T lymphocytes and macrophages; test: Cellular target in Lamina propria (CD3, F4/80, pSTAT3) after oral gavage; assay type: in vivo, mouse
[7] = tested on: IFNγ, IL-1β, IL-2, IL-6, IL-8, TNFα; test: Single oral capsule dose in NHP: plasma proinflammatory cytokines; assay type: in vivo, Macaca fascicularis
Procedure: The panel of cytokines (IFNγ, IL-1β, IL-2, IL-6, and IL-8) was evaluated using a multiplex kit available from MSD. The assays in this panel were sandwich immunoassays. The MSD plate came precoated with capture antibodies on independent and pre-defined spots, and samples were quantitated against an 8-point standard curve prepared using a mixture of the cytokines (Proinflammatory Panel 1 (human) Calibrator Blend) from MSD. The standards included 0 pg/mL and these concentration ranges: IFNγ (0.37-1500 pg/mL), IL-1β (0.14-589 pg/mL), IL-2 (0.36-1490 pg/mL), IL-6 (0.18-721 pg/mL) and IL-8 (0.14-553 pg/mL).
The MSD plate (pre-coated with capture antibodies) was washed 3 times with PBST before use. Standards were prepared in Diluent 2 (MSD Cat No R51BB) and test samples diluted 2 fold in Diluent 2. Standards and diluted samples were added to the assay plate, and the plate incubated for 2 hours at room temperature with shaking. The plate was washed 3 times with PBST, and a mixture of 1×SULFO TAG detection antibodies added to the plate. The plate was incubated for 2 hours at room temperature with shaking. Following a wash step, 2×MSD Read buffer was added to the wells of the plate, and the plate read using the MSD Sector Imager 600 plate reader. The lower limit of detection of each analyte was defined as 2.5 standard deviation above background.
The purpose of the TNFα immunoassay was to quantify NHP TNFα concentration in plasma. The antibody pair in this immunoassay reacted with both human and NHP TNFα. Samples were quantitated using an 8-point standard curve prepared from a human TNFα calibrator that ranges in concentration from 5.6-4052 pg/mL and includes 0 pg/mL.
The biotinylated anti-NHP TNFα capture antibody was added to a MSD Small Spot Streptavidin plate and incubated for an hour at RT with shaking. Controls were prepared in pooled plasma, standards in Diluent 43 (MSD Cat No R50AG), and test samples were diluted 2 fold in Diluent 43. […] Following a wash step, 2×MSD Read buffer was added to the wells of the plate, and the plate read using the MSD Sector Imager 600 plate reader. […]

B1: IL-10 delivery construct: recombinant homodimeric fusion protein: N-terminal methionine, cholix386 domain, polyGlySer spacer, recombinant human IL-10 (protein)
chain: MVEEALNIFDECRSPCSLTPEPGKPIQSKLSIPSDVVLDEGVLYYSMTINDEQNDIKDEDKGESIITIGEFATVRATRHYVNQDAPFGVIHLDITTENGTKTYSYNRKEGEFAINWLVPIGEDSPASIKISVDELDQQRNIIEVPKLYSIDLDNQTLEQWKTQGNVSFSVTRPEHNIAISWPSVSYKAAQKEGSRHKRWAHWHTGLALCWLVPMDAIYNYITQQNCTLGDNWFGGSYETVAGTPKVITVKQGIEQKPVEQRIHFSKGNAMSALAAHRVCGVPLETLARSRKPRDLTDDLSCAYQAQNIVSLFVATRILFSHLDSVFTLNLDEQEPEVAERLSDLRRINENNPGMVTQVLTVARQIYNDYVTHHPGLTPEQTSAGAQAGGGGSGGGGSGGGGSPGQGTQSENSCTHFPGNLPNMLRDLRDAFSRVKTFFQMKDQLDNLLLKESLLEDFKGYLGCQALSEMIQFYLEEVMPQAENQDPDIKAHVNSLGENLKTLRLRLRRCHRFLPCENKSKAVEQVKNAFNKLQEKGIYKAMSEFDIFINYIEAYMTMKIRN
modifications: homodimer
plasma IL-31 ([1]; 0.3 mg/kg): near-base line levels
plasma TGF-β relative to Vehicle ([1]; 3.0 mg/kg): reduced
plasma IL-3 ([1]; 9.0 mg/kg): near-base line levels
plasma IL-4 ([1]; 9.0 mg/kg): near-base line levels
production of IL-12 and IL-17 ([1]; 9.0 mg/kg): prevented the production
plasma IL-28 ([1]; 3.0 and 9.0 mg/kg): near-base line levels
plasma MCSF ([1]; highest dose (9.0 mg/kg)): reduced
oxazolone-induced changes in LIX, LIF, IP10 ([1]; mouse, in vivo): mitigated
oxazolone-induced increase in plasma GCSF/CSF3 ([1]; mouse, in vivo): attenuated
plasma IL-13 and IL-15 vs Vehicle ([1]; mouse, in vivo): trend towards an IL-10 delivery construct-mediated decrease
hIL-10 in small intestinal lysates relative to colonic lysates [2]: ~10 fold higher
serum IL-1Ra ([2]; 4 h): significantly increased
aggregation during freeze/thaw or at 1 week at 4 °C (20 mg/mL, any condition tested): did not show any significant increases in aggregation
stability with respect to aggregation (initial lyophilization feasibility study): more stable at pH 7.5 with sucrose and glycine
plasma cytokines, MSD 10-plex, vs Vehicle [3]: no significant differences
Dimer Purity (%) ([4]; No Sulfitolysis of SIB (97 mL Capto Q)): 84%
Dimer Purity (%) ([4]; Sulfitolysis of SIB (97 mL Capto Q)): 74%
FCP activity at higher doses ([5]; 10 mg and 30 mg): diminution of activity
Geboes score of one UC patient, pre-dose to post-treatment ([5]; 10 mg, 14 days, 22 point scale): improved from a score of 15 to a score of three
tolerability in patients with UC ([5]; 1-30 mg once daily, 14 days): well tolerated
CRP levels vs placebo ([5]; 1 and 3 mgs, baseline CRP greater than 5 mg/L): greater reductions in CRP levels
patients with reduced Geboes score ([5]; 14 days, active patients): 60%
TEAEs in the 12 active patients ([5]; human, in vivo): 20
CD3+ cells co-localizing with pSTAT3 ([6]; 40 min after oral gavage): moderate proportion
F4/80 (macrophage) co-localization with pSTAT3 ([6]; after oral gavage): extensive co-localization with pSTAT3
plasma IFNγ, IL-1β, IL-2, IL-8, IL-6 ([7]; 1-82 mg oral capsules): not associated with any consistent trends
plasma TNFα ([7]; all samples below limit of detection): no induction
plasma IL-1Ra and IFN-γ after oral enteric-coated capsules ([7]; compared with intravenous administration): increased IL-1Ra without significant induction of IFN-γ

Source: patent US11466067B2 (priority 2019, dated 2022)
